# Laboratory results taken from US20140087995A1 (published 2014).
# Numbered stars: 1 amine (or outer) side, 2 acyl side, 3 side chain; on linkers, the order of the positions; unused ones are H or OH. Bridge positions count the residues as written; N and C are the ends. Side chains are listed from the residue outwards. Ends that are not written are not given here. * marks the point of attachment. C20 diacid = O=C(O)CCCCCCCCCCCCCCCCCCC(=O)*; γGlu = O=C(O)[C@H](CCC(=O)[*:2])N[*:1]; AEEA = NCCOCCOCC(=O)O
# T1: human amylin receptor (amylin 3(a) receptor: human calcitonin receptor co-expressed with RAMP-3) (human, UniProt P30988 25-474; O60896 24-148, limits assumed)
# T1 sequence (looked up) 1: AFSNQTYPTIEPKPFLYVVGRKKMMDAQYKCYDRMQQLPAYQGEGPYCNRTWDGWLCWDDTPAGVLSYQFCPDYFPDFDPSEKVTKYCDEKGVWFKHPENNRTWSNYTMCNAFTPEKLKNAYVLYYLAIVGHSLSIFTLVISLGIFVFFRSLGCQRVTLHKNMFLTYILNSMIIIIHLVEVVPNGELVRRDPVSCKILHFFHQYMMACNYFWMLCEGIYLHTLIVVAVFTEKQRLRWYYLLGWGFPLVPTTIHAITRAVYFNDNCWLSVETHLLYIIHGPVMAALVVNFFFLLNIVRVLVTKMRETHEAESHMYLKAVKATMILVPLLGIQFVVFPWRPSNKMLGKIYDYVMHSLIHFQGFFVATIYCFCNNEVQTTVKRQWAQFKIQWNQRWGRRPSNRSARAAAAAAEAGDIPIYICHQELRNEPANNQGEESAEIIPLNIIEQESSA
# T1 sequence (looked up) 2: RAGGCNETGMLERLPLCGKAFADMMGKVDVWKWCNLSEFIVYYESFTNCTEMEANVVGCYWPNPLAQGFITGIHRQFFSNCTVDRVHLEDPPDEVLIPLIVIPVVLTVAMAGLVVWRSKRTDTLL
# T2: human calcitonin receptor (human, UniProt P30988 25-474)
# T2 sequence (looked up): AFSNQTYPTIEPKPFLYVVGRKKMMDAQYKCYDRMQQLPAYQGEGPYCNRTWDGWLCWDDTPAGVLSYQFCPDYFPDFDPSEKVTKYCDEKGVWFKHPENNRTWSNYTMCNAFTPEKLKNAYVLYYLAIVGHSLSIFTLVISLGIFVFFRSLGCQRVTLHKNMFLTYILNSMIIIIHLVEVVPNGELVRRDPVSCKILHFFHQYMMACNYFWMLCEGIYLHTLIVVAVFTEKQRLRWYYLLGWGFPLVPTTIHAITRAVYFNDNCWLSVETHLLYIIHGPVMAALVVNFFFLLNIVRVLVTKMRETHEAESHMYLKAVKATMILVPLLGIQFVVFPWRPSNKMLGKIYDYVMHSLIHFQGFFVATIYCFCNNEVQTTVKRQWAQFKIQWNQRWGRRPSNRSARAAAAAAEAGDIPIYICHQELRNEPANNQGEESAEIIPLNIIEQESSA
# Tests used:
# [1] = molecular target: T1, human amylin receptor (amylin 3(a) …); assay: cell-based or functional assay
# [2] = molecular target: T2, human calcitonin receptor; assay: cell-based or functional assay
Binder,hAmylin-R funct. EC50 [1] [pM],hCTR funct. EC50 [2] [pM],Ratio hCT/hAmylin funct. [1]
"K([AEEA-γGlu-C20 diacid])CNTATCATQRLAGFLRHSSPNFGAIPSSTPVGSNTY-NH2 (disulfide 2-7; N-terminus assumed; SMILES CC[C@H](C)[C@H](NC(=O)[C@H](C)NC(=O)CNC(=O)[C@H](Cc1ccccc1)NC(=O)[C@H](CC(N)=O)NC(=O)[C@@H]1CCCN1C(=O)[C@H](CO)NC(=O)[C@H](CO)NC(=O)[C@H](Cc1c[nH]cn1)NC(=O)[C@H](CCCNC(=N)N)NC(=O)[C@H](CC(C)C)NC(=O)[C@H](Cc1ccccc1)NC(=O)CNC(=O)[C@H](C)NC(=O)[C@H](CC(C)C)NC(=O)[C@H](CCCNC(=N)N)NC(=O)[C@H](CCC(N)=O)NC(=O)[C@@H](NC(=O)[C@H](C)NC(=O)[C@@H]1CSSC[C@H](NC(=O)[C@@H](N)CCCCNC(=O)COCCOCCNC(=O)CC[C@H](NC(=O)CCCCCCCCCCCCCCCCCCC(=O)O)C(=O)O)C(=O)N[C@@H](CC(N)=O)C(=O)N[C@@H]([C@@H](C)O)C(=O)N[C@@H](C)C(=O)N[C@@H]([C@@H](C)O)C(=O)N1)[C@@H](C)O)C(=O)N1CCC[C@H]1C(=O)N[C@@H](CO)C(=O)N[C@@H](CO)C(=O)N[C@H](C(=O)N1CCC[C@H]1C(=O)N[C@H](C(=O)NCC(=O)N[C@@H](CO)C(=O)N[C@@H](CC(N)=O)C(=O)N[C@H](C(=O)N[C@@H](Cc1ccc(O)cc1)C(N)=O)[C@@H](C)O)C(C)C)[C@@H](C)O, also called compound 71)",56,527,–
"K([AEEA-γGlu-C20 diacid])CNTATCATQRLAHFLRHSSPNFGAIPSSTNVGRNTY-NH2 (disulfide 2-7; N-terminus assumed; SMILES CC[C@H](C)[C@H](NC(=O)[C@H](C)NC(=O)CNC(=O)[C@H](Cc1ccccc1)NC(=O)[C@H](CC(N)=O)NC(=O)[C@@H]1CCCN1C(=O)[C@H](CO)NC(=O)[C@H](CO)NC(=O)[C@H](Cc1c[nH]cn1)NC(=O)[C@H](CCCNC(=N)N)NC(=O)[C@H](CC(C)C)NC(=O)[C@H](Cc1ccccc1)NC(=O)[C@H](Cc1c[nH]cn1)NC(=O)[C@H](C)NC(=O)[C@H](CC(C)C)NC(=O)[C@H](CCCNC(=N)N)NC(=O)[C@H](CCC(N)=O)NC(=O)[C@@H](NC(=O)[C@H](C)NC(=O)[C@@H]1CSSC[C@H](NC(=O)[C@@H](N)CCCCNC(=O)COCCOCCNC(=O)CC[C@H](NC(=O)CCCCCCCCCCCCCCCCCCC(=O)O)C(=O)O)C(=O)N[C@@H](CC(N)=O)C(=O)N[C@@H]([C@@H](C)O)C(=O)N[C@@H](C)C(=O)N[C@@H]([C@@H](C)O)C(=O)N1)[C@@H](C)O)C(=O)N1CCC[C@H]1C(=O)N[C@@H](CO)C(=O)N[C@@H](CO)C(=O)N[C@H](C(=O)N[C@@H](CC(N)=O)C(=O)N[C@H](C(=O)NCC(=O)N[C@@H](CCCNC(=N)N)C(=O)N[C@@H](CC(N)=O)C(=O)N[C@H](C(=O)N[C@@H](Cc1ccc(O)cc1)C(N)=O)[C@@H](C)O)C(C)C)[C@@H](C)O, also called compound 84)",169,5490,32.5
"K([AEEA-γGlu-C20 diacid])CNTATCATQRLAHFLRHSSPNFGAIPSSTNVGHNTY-NH2 (disulfide 2-7; N-terminus assumed; SMILES CC[C@H](C)[C@H](NC(=O)[C@H](C)NC(=O)CNC(=O)[C@H](Cc1ccccc1)NC(=O)[C@H](CC(N)=O)NC(=O)[C@@H]1CCCN1C(=O)[C@H](CO)NC(=O)[C@H](CO)NC(=O)[C@H](Cc1c[nH]cn1)NC(=O)[C@H](CCCNC(=N)N)NC(=O)[C@H](CC(C)C)NC(=O)[C@H](Cc1ccccc1)NC(=O)[C@H](Cc1c[nH]cn1)NC(=O)[C@H](C)NC(=O)[C@H](CC(C)C)NC(=O)[C@H](CCCNC(=N)N)NC(=O)[C@H](CCC(N)=O)NC(=O)[C@@H](NC(=O)[C@H](C)NC(=O)[C@@H]1CSSC[C@H](NC(=O)[C@@H](N)CCCCNC(=O)COCCOCCNC(=O)CC[C@H](NC(=O)CCCCCCCCCCCCCCCCCCC(=O)O)C(=O)O)C(=O)N[C@@H](CC(N)=O)C(=O)N[C@@H]([C@@H](C)O)C(=O)N[C@@H](C)C(=O)N[C@@H]([C@@H](C)O)C(=O)N1)[C@@H](C)O)C(=O)N1CCC[C@H]1C(=O)N[C@@H](CO)C(=O)N[C@@H](CO)C(=O)N[C@H](C(=O)N[C@@H](CC(N)=O)C(=O)N[C@H](C(=O)NCC(=O)N[C@@H](Cc1c[nH]cn1)C(=O)N[C@@H](CC(N)=O)C(=O)N[C@H](C(=O)N[C@@H](Cc1ccc(O)cc1)C(N)=O)[C@@H](C)O)C(C)C)[C@@H](C)O, also called compound 80)",139,2140,–

# The remaining lines, values ahead:
hAmylin-R funct. EC50 [1] [pM],hCTR funct. EC50 [2] [pM],Ratio hCT/hAmylin funct. [1],Binder
51,554,–,"K([AEEA-γGlu-C20 diacid])CNTATCATQRLAHFLRHSSPNFGAIPSSTPVGSNTY-NH2 (disulfide 2-7; N-terminus assumed; SMILES CC[C@H](C)[C@H](NC(=O)[C@H](C)NC(=O)CNC(=O)[C@H](Cc1ccccc1)NC(=O)[C@H](CC(N)=O)NC(=O)[C@@H]1CCCN1C(=O)[C@H](CO)NC(=O)[C@H](CO)NC(=O)[C@H](Cc1c[nH]cn1)NC(=O)[C@H](CCCNC(=N)N)NC(=O)[C@H](CC(C)C)NC(=O)[C@H](Cc1ccccc1)NC(=O)[C@H](Cc1c[nH]cn1)NC(=O)[C@H](C)NC(=O)[C@H](CC(C)C)NC(=O)[C@H](CCCNC(=N)N)NC(=O)[C@H](CCC(N)=O)NC(=O)[C@@H](NC(=O)[C@H](C)NC(=O)[C@@H]1CSSC[C@H](NC(=O)[C@@H](N)CCCCNC(=O)COCCOCCNC(=O)CC[C@H](NC(=O)CCCCCCCCCCCCCCCCCCC(=O)O)C(=O)O)C(=O)N[C@@H](CC(N)=O)C(=O)N[C@@H]([C@@H](C)O)C(=O)N[C@@H](C)C(=O)N[C@@H]([C@@H](C)O)C(=O)N1)[C@@H](C)O)C(=O)N1CCC[C@H]1C(=O)N[C@@H](CO)C(=O)N[C@@H](CO)C(=O)N[C@H](C(=O)N1CCC[C@H]1C(=O)N[C@H](C(=O)NCC(=O)N[C@@H](CO)C(=O)N[C@@H](CC(N)=O)C(=O)N[C@H](C(=O)N[C@@H](Cc1ccc(O)cc1)C(N)=O)[C@@H](C)O)C(C)C)[C@@H](C)O, also called compound 61)"
54,932,–,"K([AEEA-γGlu-C20 diacid])CNTATCATQRLAHFLRHSSPNFGAIPSSTNVGPNTY-NH2 (disulfide 2-7; N-terminus assumed; SMILES CC[C@H](C)[C@H](NC(=O)[C@H](C)NC(=O)CNC(=O)[C@H](Cc1ccccc1)NC(=O)[C@H](CC(N)=O)NC(=O)[C@@H]1CCCN1C(=O)[C@H](CO)NC(=O)[C@H](CO)NC(=O)[C@H](Cc1c[nH]cn1)NC(=O)[C@H](CCCNC(=N)N)NC(=O)[C@H](CC(C)C)NC(=O)[C@H](Cc1ccccc1)NC(=O)[C@H](Cc1c[nH]cn1)NC(=O)[C@H](C)NC(=O)[C@H](CC(C)C)NC(=O)[C@H](CCCNC(=N)N)NC(=O)[C@H](CCC(N)=O)NC(=O)[C@@H](NC(=O)[C@H](C)NC(=O)[C@@H]1CSSC[C@H](NC(=O)[C@@H](N)CCCCNC(=O)COCCOCCNC(=O)CC[C@H](NC(=O)CCCCCCCCCCCCCCCCCCC(=O)O)C(=O)O)C(=O)N[C@@H](CC(N)=O)C(=O)N[C@@H]([C@@H](C)O)C(=O)N[C@@H](C)C(=O)N[C@@H]([C@@H](C)O)C(=O)N1)[C@@H](C)O)C(=O)N1CCC[C@H]1C(=O)N[C@@H](CO)C(=O)N[C@@H](CO)C(=O)N[C@H](C(=O)N[C@@H](CC(N)=O)C(=O)N[C@H](C(=O)NCC(=O)N1CCC[C@H]1C(=O)N[C@@H](CC(N)=O)C(=O)N[C@H](C(=O)N[C@@H](Cc1ccc(O)cc1)C(N)=O)[C@@H](C)O)C(C)C)[C@@H](C)O, also called compound 68)"
666,37500,–,"K([AEEA-γGlu-C20 diacid])CNTATCATQRLAKFLRHSSPNFGAIPSSTPVGSNTY-NH2 (disulfide 2-7; N-terminus assumed; SMILES CC[C@H](C)[C@H](NC(=O)[C@H](C)NC(=O)CNC(=O)[C@H](Cc1ccccc1)NC(=O)[C@H](CC(N)=O)NC(=O)[C@@H]1CCCN1C(=O)[C@H](CO)NC(=O)[C@H](CO)NC(=O)[C@H](Cc1c[nH]cn1)NC(=O)[C@H](CCCNC(=N)N)NC(=O)[C@H](CC(C)C)NC(=O)[C@H](Cc1ccccc1)NC(=O)[C@H](CCCCN)NC(=O)[C@H](C)NC(=O)[C@H](CC(C)C)NC(=O)[C@H](CCCNC(=N)N)NC(=O)[C@H](CCC(N)=O)NC(=O)[C@@H](NC(=O)[C@H](C)NC(=O)[C@@H]1CSSC[C@H](NC(=O)[C@@H](N)CCCCNC(=O)COCCOCCNC(=O)CC[C@H](NC(=O)CCCCCCCCCCCCCCCCCCC(=O)O)C(=O)O)C(=O)N[C@@H](CC(N)=O)C(=O)N[C@@H]([C@@H](C)O)C(=O)N[C@@H](C)C(=O)N[C@@H]([C@@H](C)O)C(=O)N1)[C@@H](C)O)C(=O)N1CCC[C@H]1C(=O)N[C@@H](CO)C(=O)N[C@@H](CO)C(=O)N[C@H](C(=O)N1CCC[C@H]1C(=O)N[C@H](C(=O)NCC(=O)N[C@@H](CO)C(=O)N[C@@H](CC(N)=O)C(=O)N[C@H](C(=O)N[C@@H](Cc1ccc(O)cc1)C(N)=O)[C@@H](C)O)C(C)C)[C@@H](C)O, also called compound 74)"
